Data on one molecule can be found in US12234475B2, “Compositions and methods for therapeutic delivery” (GenVivo, Inc., priority 2021, dated 2025).

The subject of this test is mouse splenocytes. The test is described as follows: IFN-γ production by ELISA after stimulating mouse splenocytes with IL-12 containing conditioned media. It is filed as cell-based. The note with it: summary, compared with commercial IL-12. How it is done: Functionality of mIL-12 was examined by incubating mouse splenocytes with mIL-12 and measuring INF-γ. About 2×10^6 mouse splenocytes were stimulated with either commercial recombinant mouse IL-12 (rIL-12) or the CM from mIL-12 retroviral vector transduced and stably expressing A375 cells for 48 hours. Following stimulation, the CM from each culture was collected and measured for IFN-γ production by ELISA (FIG. 5).
Next, CT26, murine colorectal carcinoma cell line was transduced with the mIL-12 retroviral vector and examined whether or not secreted mIL-12 can produce IFN-γ and activate inflammatory genes from immune cells. About 2×10^6 mouse splenocytes were stimulated with either commercial rIL-12 or the CM from mIL-12 expressing CT26 cells at the concentration of 2 ng/mL for 48 hours. Following stimulation, the supernatant and cells from each group were collected and analyzed for the production of IFN-γ via ELISA and the expression of inflammatory genes via qPCR. […] Some preliminary animal studies were performed by implanting 1.5×10^5 CT26 cells stably expressing luciferase gene or CT26 cells stably expressing luciferase and mIL-12 gene from the retroviral vector cells into the right shoulder flank. […] Bio-luminescence images of animals implanted with either CT26 expressing luciferase or luciferase and mIL-12 tumor cells are shown in FIG. 12. […]

B1: mIL-12: mouse IL-12 heterodimer of P40 and P35 secreted by cells transduced with the mIL-12 retroviral vector (protein, UniProt P43432 23-335; P43431 23-215, looked up)
Interleukin-12 subunit beta: MWELEKDVYVVEVDWTPDAPGETVNLTCDTPEEDDITWTSDQRHGVIGSGKTLTITVKEFLDAGQYTCHKGGETLSHSHLLLHKKENGIWSTEILKNFKNKTFLKCEAPNYSGRFTCSWLVQRNMDLKFNIKSSSSSPDSRAVTCGMASLSAEKVTLDQRDYEKYSVSCQEDVTCPTAEETLPIELALEARQQNKYENYSTSFFIRDIIKPDPPKNLQMKPLKNSQVEVSWEYPDSWSTPHSYFSLKFFVRIQRKKEKMKETEEGCNQKGAFLVEKTSTEVQCKGGNVCVQAQDRYYNSSCSKWACVPCRVRS
Interleukin-12 subunit alpha: RVIPVSGPARCLSQSRNLLKTTDDMVKTAREKLKHYSCTAEDIDHEDITRDQTSTLKTCLPLELHKNESCLATRETSSTTRGSCLPPQKTSLMMTLCLGSIYEDLKMYQTEFQAINAALQNHNHQQIILDKGMLVAIDELMQSLNHNGETLRQKPPVGEADPYRVKMKLCILLHAFSTRVVTINRVMGYLSSA
For the molecule B1, the “T-cell activation and IFN-γ production in vitro” value is listed as “as functionally effective as commercial IL-12”.
